Article PMC2932838 (Biochemistry, 2010)
Like-named read-outs stand apart in the source and are kept apart here. Blank lines part the entries; values can stand above or below the binder they belong to.

Assays:
[1] = biological target: Recombinant Aα392–610 fragment (human fibrinogen αC-domain) (human); test: ELISA
[2] = biological target: Recombinant Aα504–610 fragment (C-terminal sub-domain of the αC-domain) (human); test: ELISA
[3] = biological target: Fibrin made from surface-adsorbed or chip-immobilized human fibrinogen by thrombin (most probably monomeric) (human) (UniProt P02679); test: ELISA
[4] = biological target: T1, Plasminogen-depleted human fibrinogen (human, UniProt P02671-2 36-644; P02675 45-491; P02679 27-453); test: ELISA
[5] = biological target: Recombinant Aα392–610 fragment (human fibrinogen αC-domain) (human); test: ELISA; remark: listed apart in the source
[6] = biological target: Fibrin made from surface-adsorbed or chip-immobilized human fibrinogen by thrombin (most probably monomeric) (human) (UniProt P02679); test: ELISA; remark: listed apart in the source
[7] = biological target: Recombinant Aα392–610 fragment (human fibrinogen αC-domain) (human); test: ELISA; remark: listed apart in the source
[8] = biological target: Fibrin made from surface-adsorbed or chip-immobilized human fibrinogen by thrombin (most probably monomeric) (human) (UniProt P02679); test: ELISA; remark: listed apart in the source
[9] = biological target: T1, Plasminogen-depleted human fibrinogen; test: ELISA; remark: listed apart in the source
[10] = biological target: Recombinant Aα504–610 fragment (C-terminal sub-domain of the αC-domain) (human); test: ELISA; remark: listed apart in the source
[11] = biological target: Fibrin made from surface-adsorbed or chip-immobilized human fibrinogen by thrombin (most probably monomeric) (human) (UniProt P02679); test: ELISA; remark: listed apart in the source
[12] = biological target: Recombinant Aα221–610 fragment (human fibrinogen αC region) (human); test: ELISA
[13] = biological target: Fibrinogen D1 fragment (human); test: ELISA
[14] = biological target: Fibrinogen D1 fragment (human); test: ELISA; remark: listed apart in the source
[15] = biological target: Polymeric fibrin (cross-linked fibrin oligomers/polymers prepared on the sensor chip) (human) (UniProt P02679); test: SPR
[16] = biological target: Polymeric fibrin (cross-linked fibrin oligomers/polymers prepared on the sensor chip) (human) (UniProt P02679); test: SPR; remark: listed apart in the source
[17] = biological target: T2, Human α2-antiplasmin, Asn-α2-AP form (human, UniProt P08697 40-491); test: SPR
T2 sequence (looked up): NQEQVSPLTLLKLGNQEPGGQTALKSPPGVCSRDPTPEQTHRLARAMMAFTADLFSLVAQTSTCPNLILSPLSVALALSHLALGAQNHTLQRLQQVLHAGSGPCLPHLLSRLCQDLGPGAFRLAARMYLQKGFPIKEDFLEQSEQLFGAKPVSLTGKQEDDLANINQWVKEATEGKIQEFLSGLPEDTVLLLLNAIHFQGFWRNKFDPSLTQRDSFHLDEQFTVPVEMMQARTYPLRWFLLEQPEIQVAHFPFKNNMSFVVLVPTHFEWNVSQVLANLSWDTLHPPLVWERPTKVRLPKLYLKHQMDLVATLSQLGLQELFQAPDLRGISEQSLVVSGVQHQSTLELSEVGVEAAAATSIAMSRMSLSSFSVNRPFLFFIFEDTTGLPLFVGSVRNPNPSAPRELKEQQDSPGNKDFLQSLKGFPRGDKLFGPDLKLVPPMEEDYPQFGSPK

B3: Human α2-antiplasmin, Asn-α2-AP form (natural protein)
chain: NQEQVSPLTLLKLGNQEPGGQTALKSPPGVCSRDPTPEQTHRLARAMMAFTADLFSLVAQTSTCPNLILSPLSVALALSHLALGAQNHTLQRLQQVLHAGSGPCLPHLLSRLCQDLGPGAFRLAARMYLQKGFPIKEDFLEQSEQLFGAKPVSLTGKQEDDLANINQWVKEATEGKIQEFLSGLPEDTVLLLLNAIHFQGFWRNKFDPSLTQRDSFHLDEQFTVPVEMMQARTYPLRWFLLEQPEIQVAHFPFKNNMSFVVLVPTHFEWNVSQVLANLSWDTLHPPLVWERPTKVRLPKLYLKHQMDLVATLSQLGLQELFQAPDLRGISEQSLVVSGVQHQSTLELSEVGVEAAAATSIAMSRMSLSSFSVNRPFLFFIFEDTTGLPLFVGSVRNPNPSAPRELKEQQDSPGNKDFLQSLKGFPRGDKLFGPDLKLVPPMEEDYPQFGSPK
Kd [15]: 45 nM
Kd [16]: 68 nM

B4: Fibrin-derived D-D:E complex (complex)
chain 1: VSEDLRSRIEVLKRKVIEKVQHIQLLQKNVRAQLVDMKRLEVDIDIKIRSCRGSCSRALAREVDLKDYEDQQKQLEQVIAKDLLPSR
chain 2: DNENVVNEYSSELEKHQLYIDETVNSNIPTNLRVLRSILENLRSKIQKLESDVSAQMEYCRTPCTVSCNIPVVSGKECEEIIRKGGETSEMYLIQPDSSVKPYRVYCDMNTENGGWTVIQNRQDGSVDFGRKWDPYKQGFGNVATNTDGKNYCGLPGEYWLGNDKISQLTRMGPTELLIEMEDWKGDKVKAHYGGFTVQNEANKYQISVNKYRGTAGNALMDGASQLMGENRTMTIHNGMFFSTYDRDNDGWLTSDPRKQCSKEDGGGWWYNRCHAANPNGRYYWGGQYTWDMAKHGTDDGVVWMNWKGSWYSMRKMSMKIRPFFPQQ
chain 3: KMLEEIMKYEASILTHDSSIRYLQEIYNSNNQKIVNLKEKVAQLEAQCQEPCKDTVQIHDITGKDCQDIANKGAKQSGLYFIKPLKANQQFLVYCEIDGSGNGWTVFQKRLDGSVDFKKNWIQYKEGFGHLSPTGTTEFWLGNEKIHLISTQSAIPYALRVELEDWNGRTSTADYAMFKVGPEADKYRLTYAYFAGGDAGDAFDGFDFGDDPSDKFFTSHNGMQFSTWDNDNDKFEGNCAEQDGSGWWMNKCHAGHLNGVYYQGGTYSKASTPNGYDNGIIWATWKTRWYSMKKTTMKIIPFNRLTIGEGQQHHLGGAK
chain 4: GPRVVERHQSACKDSDWPFCSDEDWNYKCPSGCRMKGLIDEVNQDFTNRINKLKNSLFEYQK
chain 5: GHRPLDKKREEAPSLRPAPPPISGGGYRARPAKAAATQKKVERKAPDAGGCLHADPDLGVLCPTGCQLQEALLQQERPIRNSVDELNNNVEAVSQTSSSSFQYMYLLK
chain 6: YVATRDNCCILDERFGSYCPTTCGIADFLSTYQTKVDKDLQSLEDILHQVENKTSEVKQLIK
modifications: covalent γ-γ cross-linking between the D regions
Kd [17]: 1400 ± 400 nM

Other lines, results leading:

Kd [1]: 141 nM
Kd [2]: 130 nM
Kd [3]: 101 nM
Kd [4]: 179 nM
Kd [5]: 111 nM
Kd [6]: 25 nM
Kd [7]: 157 nM
Kd [8]: 109 nM
Kd [9]: 102 nM
Kd [10]: 123 nM
Kd [11]: 102 nM
Kd [12]: 131 nM
B1: Biotinylated human α2-antiplasmin (Asn-α2-AP form) (natural protein, UniProt P08697 40-491, looked up)
chain: NQEQVSPLTLLKLGNQEPGGQTALKSPPGVCSRDPTPEQTHRLARAMMAFTADLFSLVAQTSTCPNLILSPLSVALALSHLALGAQNHTLQRLQQVLHAGSGPCLPHLLSRLCQDLGPGAFRLAARMYLQKGFPIKEDFLEQSEQLFGAKPVSLTGKQEDDLANINQWVKEATEGKIQEFLSGLPEDTVLLLLNAIHFQGFWRNKFDPSLTQRDSFHLDEQFTVPVEMMQARTYPLRWFLLEQPEIQVAHFPFKNNMSFVVLVPTHFEWNVSQVLANLSWDTLHPPLVWERPTKVRLPKLYLKHQMDLVATLSQLGLQELFQAPDLRGISEQSLVVSGVQHQSTLELSEVGVEAAAATSIAMSRMSLSSFSVNRPFLFFIFEDTTGLPLFVGSVRNPNPSAPRELKEQQDSPGNKDFLQSLKGFPRGDKLFGPDLKLVPPMEEDYPQFGSPK
modifications: biotin (EZ-Link Sulfo-NHS-Biotinylation Kit), sites not stated

Kd [13]: 165 nM
Kd [14]: 197 nM
B2: Biotinylated human α2-antiplasmin (Asn-α2-AP form), P08697 40-491 (natural protein)
chain: NQEQVSPLTLLKLGNQEPGGQTALKSPPGVCSRDPTPEQTHRLARAMMAFTADLFSLVAQTSTCPNLILSPLSVALALSHLALGAQNHTLQRLQQVLHAGSGPCLPHLLSRLCQDLGPGAFRLAARMYLQKGFPIKEDFLEQSEQLFGAKPVSLTGKQEDDLANINQWVKEATEGKIQEFLSGLPEDTVLLLLNAIHFQGFWRNKFDPSLTQRDSFHLDEQFTVPVEMMQARTYPLRWFLLEQPEIQVAHFPFKNNMSFVVLVPTHFEWNVSQVLANLSWDTLHPPLVWERPTKVRLPKLYLKHQMDLVATLSQLGLQELFQAPDLRGISEQSLVVSGVQHQSTLELSEVGVEAAAATSIAMSRMSLSSFSVNRPFLFFIFEDTTGLPLFVGSVRNPNPSAPRELKEQQDSPGNKDFLQSLKGFPRGDKLFGPDLKLVPPMEEDYPQFGSPK
modifications: here or on the partner: biotin (EZ-Link Sulfo-NHS-Biotinylation Kit), sites not stated
